molecular target: acetylcholine receptor (Homo sapiens, UniProt P02708); test: SPR binding affinity (RU) of optimized 5mer/6mer/7mer peptides, Examples 6-7; conditions: 6mer-1 Top sequence; SPR; peptides tested at 10 μM
Method in brief: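 Response units from SPR give the binding values listed. Each synthesized peptide was run at 10 μM over the receptor.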

Sequence of acetylcholine receptor (P02708 21-457): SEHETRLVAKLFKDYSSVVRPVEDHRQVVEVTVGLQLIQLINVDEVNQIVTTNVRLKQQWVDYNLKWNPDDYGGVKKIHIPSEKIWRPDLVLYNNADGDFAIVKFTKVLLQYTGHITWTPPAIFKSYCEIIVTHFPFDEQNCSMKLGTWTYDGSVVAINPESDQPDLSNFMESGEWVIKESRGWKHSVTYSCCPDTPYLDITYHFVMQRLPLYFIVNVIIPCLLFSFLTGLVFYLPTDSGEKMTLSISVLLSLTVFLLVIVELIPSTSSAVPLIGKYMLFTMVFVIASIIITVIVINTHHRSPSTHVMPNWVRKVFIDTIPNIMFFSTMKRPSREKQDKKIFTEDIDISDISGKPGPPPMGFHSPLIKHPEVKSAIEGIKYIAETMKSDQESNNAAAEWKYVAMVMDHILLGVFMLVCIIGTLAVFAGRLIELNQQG

Substance | Binding affinity
6mer-1-289 (RKRYYR) | 153 Ru
6mer-1-366 (KRWFCR) | 133 Ru
6mer-1-216 (RKSIQR) | 148 Ru
6mer-1-252 (RRWIRR) | 131 Ru
6mer-1-236 (RKLISR) | 151 Ru
6mer-1-247 (KKVRQK) | 122 Ru
6mer-1-402 (RRRVLR) | 153 Ru

same assay, conditions: 6mer-2 Top sequence; SPR; peptides tested at 10 μM

Substance | Binding affinity
6mer-2-190 (KVYLKR) | 148 Ru
6mer-2-100 (RRRCRR) | 142 Ru
6mer-2-131 (KQQTKR) | 148 Ru
6mer-2-99 (RQRSRR) | 151 Ru
6mer-2-65 (KGVCKR) | 148 Ru
6mer-2-76 (RRQSRK) | 142 Ru
6mer-2-41 (KQLCKR) | 142 Ru
6mer-2-15 (KQVRKR) | 133 Ru
6mer-2-75 (KLYTRK) | 133 Ru
6mer-2-9 (KLICRK) | 139 Ru
6mer-2-59 (RVLSRK) | 123 Ru

same assay, conditions: SPR, Resonance Units; 5mer Bottom sequence (bottom combinations); peptides tested at 10 μM

Substance | Binding affinity
5mer-659 (KIHEK) | 22 Ru
5mer-628 (RYMDR) | 19 Ru
5mer-1046 (KHTMR) | 19 Ru
5mer-989 (RCTAR) | 31 Ru
5mer-908 (RCHFK) | 25 Ru
5mer-1026 (RNAVR) | 20 Ru
5mer-985 (RDPKR) | 17 Ru
5mer-1080 (RYTHK) | 25 Ru
5mer-607 (RIEER) | 25 Ru
5mer-1068 (RMHKK) | 11 Ru
5mer-730 (KFCNK) | 27 Ru
5mer-1053 (KHEHK) | 27 Ru
5mer-1062 (RAPWR) | 24 Ru
5mer-966 (RPSAK) | 32 Ru
5mer-727 (KMDAR) | 31 Ru
5mer-1012 (RHKVR) | 22 Ru
5mer-903 (RHHKR) | 21 Ru
5mer-642 (RAWDR) | 22 Ru

same assay, conditions: SPR, Resonance Units; peptides tested at 10 μM; 6mer-1 Bottom sequence

Substance | Binding affinity
6mer-1-1068 (KRYHIR) | 31 Ru
6mer-1-1170 (KKYNPK) | 25 Ru
6mer-1-1047 (RKATDK) | 30 Ru
6mer-1-1035 (RRCHHR) | 34 Ru
6mer-1-1136 (KKIEIK) | 34 Ru
6mer-1-1195 (KRDEDK) | 25 Ru

same assay, conditions: SPR, Resonance Units; peptides tested at 10 μM; 6mer-1 Bottom sequence (Table 11)

Substance | Binding affinity
6mer-1-757 (RKDNEK) | 26 Ru
6mer-1-664 (KRDHIK) | 26 Ru
6mer-1-783 (KKNEFK) | 29 Ru
6mer-1-723 (RKMPAK) | 33 Ru
6mer-1-668 (RKATVK) | 17 Ru

same assay, conditions: SPR, Resonance Units; peptides tested at 10 μM; 6mer-2 Bottom sequence

Substance | Binding affinity
6mer-2-848 (RMTERK) | 29 Ru
6mer-2-711 (KECGRR) | 29 Ru
6mer-2-763 (KMKERR) | 19 Ru
6mer-2-642 (KTENKK) | 16 Ru
6mer-2-898 (KKKDKK) | 16 Ru
6mer-2-662 (KAHPKK) | 11 Ru
6mer-2-732 (KPTWRK) | 24 Ru
6mer-2-973 (KCPIKK) | 41 Ru
6mer-2-852 (RNCERR) | 28 Ru
6mer-2-759 (RFDEKK) | 18 Ru
6mer-2-839 (KNHNRR) | 32 Ru
6mer-2-968 (RHWEKK) | 39 Ru

same assay, conditions: SPR, Resonance Units; peptides tested at 10 μM; 6mer-2 Top sequence

Substance | Binding affinity
6mer-2-502 (KSFCKR) | 144 Ru
6mer-2-510 (KRVLKK) | 146 Ru
6mer-2-541 (KGQCRK) | 126 Ru
6mer-2-441 (KSQRKR) | 139 Ru
6mer-2-537 (KVLCKR) | 153 Ru
6mer-2-580 (KWQQRR) | 121 Ru
6mer-2-484 (RWYTKR) | 148 Ru

same assay, conditions: SPR, Resonance Units; peptides tested at 10 μM; 6mer-2 Top sequence (Table 12)

Substance | Binding affinity
6mer-2-231 (KGISKK) | 144 Ru
6mer-2-345 (KSRQKK) | 148 Ru
6mer-2-243 (KRVLKR) | 148 Ru

same assay, conditions: SPR, peptides at 10 μM; 6mer-2 Bottom sequence

Substance | Binding affinity
6mer-2-1150 (KTDVKK) | 42 Ru
6mer-2-1111 (REDEKK) | 23 Ru
6mer-2-1115 (KYSPRK) | 39 Ru
6mer-2-1022 (KCNPRR) | 22 Ru
6mer-2-1169 (KICERK) | 21 Ru
6mer-2-1001 (RKKFKK) | 37 Ru
6mer-2-1110 (RMTKKK) | 37 Ru
6mer-2-1168 (KMKPKK) | 41 Ru
6mer-2-1134 (KYENRK) | 30 Ru

same assay, conditions: SPR, peptides tested at 10 μM; 5mer Top sequence

Substance | Binding affinity
5mer-329 (RRFCR) | 79 Ru
5mer-22 (RQQLK) | 66 Ru
5mer-135 (RRLLR) | 64 Ru
5mer-411 (KGRLR) | 66 Ru
5mer-445 (RLFTR) | 77 Ru
5mer-337 (KGRSR) | 67 Ru
5mer-376 (KGQLR) | 65 Ru
5mer-355 (KLLYR) | 87 Ru
5mer-378 (RRLSK) | 65 Ru
5mer-371 (RGISK) | 86 Ru
5mer-333 (RVLQR) | 67 Ru
5mer-201 (RWIYR) | 62 Ru
5mer-191 (RVRCR) | 75 Ru
5mer-127 (RWVTK) | 86 Ru
5mer-361 (RSYQR) | 58 Ru
5mer-379 (KSRLR) | 79 Ru

same assay, conditions: SPR, peptides tested at 10 μM; 5mer Top sequence (top combinations)

Substance | Binding affinity
5mer-572 (KLRTK) | 58 Ru
5mer-516 (KWQTR) | 83 Ru
5mer-230 (KVLCR) | 67 Ru
5mer-581 (KGVLR) | 65 Ru
5mer-534 (RRQLR) | 50 Ru

same assay, conditions: SPR, peptides tested at 10 μM; 6mer-1 Bottom sequence (Table 11)

Substance | Binding affinity
6mer-1-985 (KRKSER) | 22 Ru
6mer-1-995 (KRCHHR) | 33 Ru
6mer-1-905 (RRICER) | 36 Ru
6mer-1-810 (RKCNAR) | 12 Ru

same assay, conditions: SPR, peptides tested at 10 μM; 6mer-1 Top sequence

Substance | Binding affinity
6mer-1-416 (RKLIYR) | 153 Ru
6mer-1-540 (KRVQTR) | 128 Ru
6mer-1-567 (KKRVSR) | 136 Ru
6mer-1-582 (KRWFLK) | 137 Ru
6mer-1-473 (KKVLSK) | 154 Ru

same assay, conditions: SPR, peptides tested at 10 μM; 6mer-1 Top sequence (top combinations)

Substance | Binding affinity
6mer-1-63 (KKWVSR) | 148 Ru
6mer-1-42 (KKRIQR) | 139 Ru
6mer-1-74 (KKVRLR) | 142 Ru
6mer-1-45 (RKGLTK) | 145 Ru

same assay, conditions: SPR; XRRGVRR-7mer and RRGVRRX-7mer

Substance | Binding affinity, values relative to the RRGVRR sequence
3664 (RRGVRRC) [compound 3664] | 131

same assay, conditions: SPR; XRRQRR-6mer and RRQRRX-6mer

Substance | Binding affinity, relative value to the RRQRR sequence
3621 (RRQRRG) [compound 3621] | 109
3637 (RRQRRR) [compound 3637] | 192

same assay, conditions: SPR; peptides tested at 10 μM; 5mer Bottom sequence

Substance | Binding affinity
5mer-1138 (RENHK) | 24 Ru
5mer-832 (RMHER) | 18 Ru
5mer-1200 (RKNEK) | 16 Ru
5mer-855 (RFMKK) | 18 Ru
5mer-1142 (KTENK) | 24 Ru
